Measurements from patent US20240277804A1, “TRIPLE COMBINATION THERAPY” (Immutep S.A.S., priority 2021, published 2024).

Columns and labels:
[1] = Pharmacokinetics of IMP321 after s.c. injection in cancer patients; format: in vivo, human; conditions: for at least 24 hours after s.c. injection; patients injected with IMP321 doses of more than 6 mg
Method: (§1) Doses of 6-30 mg per subcutaneous (s.c.) injection of IMP321 have been shown, thus far, to be safe and provide an acceptable systemic exposure based on the results of pharmacokinetics data obtained in cancer patients.

[2] = Safety of s.c. IMP321 in cancer patients; format: in vivo, human
Method: as §1

B1: IMP321: recombinant soluble human LAG-3Ig fusion protein, 160-kDa dimer: extracellular domain of hLAG-3 fused to human IgG1 Fc; APC activator (protein)
chain: LQPGAEVPVVWAQEGAPAQLPCSPTIPLQDLSLLRRAGVTWQHQPDSGPPAAAPGHPLAPGPHPAAPSSWGPRPRRYTVLSVGPGGLRSGRLPLQPRVQLDERGRQRGDFSLWLRPARRADAGEYRAAVHLRDRALSCRLRLRLGQASMTASPPGSLRASDWVILNCSFSRPDRPASVHWFRNRGQGRVPVRESPHHHLAESFLFLPQVSPMDSGPWGCILTYRDGFNVSIMYNLTVLGLEPPTPLTVYAGAGSRVGLPCRLPAGVGTRSFLTAKWTPPGGGPDLLVTGDNGDFTLRLEDVSQAQAGTYTCHIHLQEQQLNATVTLAIITVTPKSFGSPGSLGKLLCEVTPVSGQERFVWSSLDTPSQRSFSGPWLEAQEAQLLSQPWQCQLYQGERLLGAAVYFTELSSPG
modifications: left off: small tags and cut ends; a dimerising Fc or GST
- blood concentration of IMP321 [1]: > 1 ng/mL
- safety / acceptable systemic exposure ([2]; doses of 6-30 mg per s.c. injection): safe
- dose limiting toxicity ([2]; to date): No dose limiting toxicity has been observed
